Entries after “also recorded” stand apart in the source; their conditions may differ.
Experiments:
[1] = Phase I study: detection of AB-16B5 in tumor biopsies; format: in vivo, human; details: for Detection of AB-16B5 in Post-Treatment Biopsy: after Cycle 2 Day 15
Excerpt: (§1) Tumor biopsies were collected during the standard dose escalation to investigate the presence of AB-16B5 within the tumor. A total of 4 pre-treatment and 5 post-treatment tumor biopsies were suitable for analysis. These post-treatment tumor biopsies were collected following dosing on Cycle 2 Day 15 (between Cycle 2 Day 15 and Cycle 2 Day 18). The biopsy sites were liver (n=2), lymph node (n=2), bladder, skin and vulva.

[2] = Non-clinical toxicity, weekly administration in rats; format: in vivo, Sprague-Dawley rats
Excerpt: This finding most likely reflects a slight antigenic stimulation by AB-16B5 in these 2 regional lymph nodes.

human tumor biopsies = assay: Human tumor biopsies of patients treated with AB-16B5 as single agent (hematoxylin and eosin); format: in vivo; details: on-treatment biopsy after the second cycle
Protocol: In parallel human tumor biopsies of patients treated with AB-16B5 as single agent were analyzed (FIGS. 2B-2E). Needle biopsies obtained from a patient with metastatic thyroid cancer and form a patient with inoperable metastatic gastric cancer were sectioned and stained with hematoxylin and eosin. An on-treatment biopsy from a patient with thyroid cancer metastasic to the lungs was obtained after the second cycle treatment with AB-16B5. […] Hemosiderin-laden macrophages were observed inside necrotic areas some reflecting red blood cell extravasation associated with necrosis (not shown).

tumor biopsies = assay: Phase I study: necrosis in paired tumor biopsies; format: in vivo, human
Protocol: as §1
(§2) Immunohistochemistry studies were conducted on paired tumor biopsies to determine if the treatment with AB-16B5 was associated with a reacquisition of an epithelial phenotype.

E-cadherin = assay: Phase I study: immunohistochemistry on paired tumor biopsies, E-cadherin; format: in vivo, human
Protocol: as §2

[3] = Subject 012, Breast, biopsy site Skin
[4] = Subject 013, Prostate, biopsy site Bladder
[5] = thyroid cancer metastatic to the lungs, FIG. 2B

AB-16B5: humanized IgG2 monoclonal antibody targeting sCLU for the inhibition of cancer-associated EMT; light chain SEQ ID NO:11, heavy chain SEQ ID NO:12
presence of AB-16B5 in post-treatment tumor biopsies ([1]; 5 post-treatment tumor biopsies): confirmed in all post-treatment tumor biopsies analyzed; also recorded: confirmed in all 5 pts
Detection of AB-16B5 in Post-Treatment Biopsy ([1]; Subject 009, Lung, biopsy site Liver): Positive
Detection of AB-16B5 in Post-Treatment Biopsy ([1]; Subject 010, Colorectal, biopsy site Liver): Positive
Detection of AB-16B5 in Post-Treatment Biopsy [1, 3]: Positive
Detection of AB-16B5 in Post-Treatment Biopsy [1, 4]: Positive
Detection of AB-16B5 in Post-Treatment Biopsy ([1]; Subject 015, Ovarian, biopsy site Lymph node): Positive
incidence of minimal lymphoid hypercellularity, mandibular lymph node ([2]; rat, in vivo): 1/20
incidence of minimal lymphoid hypercellularity, mesenteric lymph node ([2]; rat, in vivo): 2/20
reversibility of lymphoid hypercellularity ([2]; rat, in vivo): complete reversibility
treatment-related clinical signs, changes in body weight, food consumption, ophthalmology, clinical pathology, organ weights ([2]; rat, in vivo): did not result in any treatment-related clinical signs
treatment-related macroscopic changes ([2]; rat, in vivo): no treatment-related macroscopic changes
No Observable Adverse Effect Level (NOAEL) ([2]; rats, weekly administration): 100 mg/kg/dose
immune infiltrate in tumor fragments (human tumor biopsies; metastatic gastric cancer, FIG. 2E): infiltrated by a mix neutrophilic and mononucleated immune cells infiltrate
immune infiltrate in tumor fragment (human tumor biopsies; [5]): A lymphoplasmacytic infiltrate was observed along the edge of the fragment
necrosis of tumor fragments (human tumor biopsies; [5]): essentially all tumor fragments were necrotic
Necrosis Post-Treatment (tumor biopsies; Subject 006, Breast, biopsy site Skin (pre-treatment 0%)): 10%
Necrosis Post-Treatment (tumor biopsies; Subject 007, Gastric, biopsy site Gastric (pre-treatment 0%)): 0%
Necrosis Post-Treatment (tumor biopsies; Subject 012, Breast, biopsy site Skin (pre-treatment 0%)): 5%
Necrosis Post-Treatment (tumor biopsies; Subject 013, Prostate, biopsy site Bladder (pre-treatment 0%)): 10%
E-cadherin Expression in Post-Treatment (E-cadherin; Subject 006, Breast, biopsy site Skin): Increase
E-cadherin Expression in Post-Treatment (E-cadherin; Subject 007, Gastric, biopsy site Gastric): Increase
E-cadherin Expression in Post-Treatment (E-cadherin; [3]): Decrease
E-cadherin Expression in Post-Treatment (E-cadherin; [4]): No change
patients with increased E-cadherin expression after treatment (E-cadherin; paired tumor biopsies): 2 pts

From patent US20240199758A1, “METHOD FOR ALLOWING IMMUNE CELLS INFILTRATION IN TUMORS” (Alethia Biotherapeutics Inc., priority 2021, published 2024)
